Measured values published in the supplement of paper PMC11780869.

Test system: Bacillus subtilis
Experiment: cleaved RNA product abundance (RNA/gDNA barcode ratio) relative to median wild-type variant (ratio to wild type); higher = more accumulation of the downstream cleavage product
Conditions: experiment (reporter, strain, medium): exp 8a: truncated aprE reporter, strain BJT201 with 2% xylose (RNase J1 expressed); cleavage site: glnRA (positions -5 to +31 mutated)
Outline: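 B. subtilis strains with chromosomally integrated reporter mRNAs (truncated aprE or tetM) holding barcoded, mutagenized RNase Y cleavage-site windows grew in LB at 37°C from OD600 0.0003 to 0.3. Cleaved product abundance is each construct's RNA:gDNA barcode ratio, scaled to the median construct with the unmutated site. It came from sequencing barcodes of gel-selected, reverse-transcribed cleaved RNA and of genomic DNA.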

Row | Sequence | cleaved RNA product abundance
1 | CGACATGTCCCGCTTCTTTCATTAATACTTTAGCAACTGTTTTGCTATATACATTTACCTTTTAAGAGGAGGAAT | 0.611
2 | CGACATGTCCCGCTTCTTTCATTAATAGGTTAGCAACTGTTTTGCTATATACATTTACCTTTTAAGAGGAGGAAT | 0.766
3 | CGACATGTCCCGCTTCTTTCATTAATATGTTAGCAACTGTTTTGCTATATACATTTACCTTTTAAGAGGAGGAAT | 0.819
4 | CGACATGTCCCGCTTCTTTCATTAATCAATTAGCAACTGTTTTGCTATATACATTTACCTTTTAAGAGGAGGAAT | 0.946
5 | CGACATGTCCCGCTTCTTTCATTAATCAGGTAGCAACTGTTTTGCTATATACATTTACCTTTTAAGAGGAGGAAT | 0.783
6 | CGACATGTCCCGCTTCTTTCATTAATCAGTAAGCAACTGTTTTGCTATATACATTTACCTTTTAAGAGGAGGAAT | 0.489
7 | CGACATGTCCCGCTTCTTTCATTAATCAGTCAGCAACTGTTTTGCTATATACATTTACCTTTTAAGAGGAGGAAT | 0.367
8 | CGACATGTCCCGCTTCTTTCATTAATCAGTGAGCAACTGTTTTGCTATATACATTTACCTTTTAAGAGGAGGAAT | 0.37
9 | CGACATGTCCCGCTTCTTTCATTAATCAGTTAACAACTGTTTTGCTATATACATTTACCTTTTAAGAGGAGGAAT | 0.249
10 | CGACATGTCCCGCTTCTTTCATTAATCAGTTAACTTTTTTGCTATATATATTTACCTTTTAAGAGGAGGAATTTT | 0.238
11 | CGACATGTCCCGCTTCTTTCATTAATCAGTTACCAACTGTTTTGCTATATACATTTACCTTTTAAGAGGAGGAAT | 0.267
12 | CGACATGTCCCGCTTCTTTCATTAATCAGTTAGAAACTGTTTTGCTATATACATTTACCTTTTAAGAGGAGGAAT | 0.328
13 | CGACATGTCCCGCTTCTTTCATTAATCAGTTAGCAACAGTTTTGCTATATACATTTACCTTTTAAGAGGAGGAAT | 0.832
14 | CGACATGTCCCGCTTCTTTCATTAATCAGTTAGCAACTATTTTGCTATATACATTTACCTTTTAAGAGGAGGAAT | 1.97
15 | CGACATGTCCCGCTTCTTTCATTAATCAGTTAGCAACTGTATTGCTATATACATTTACCTTTTAAGAGGAGGAAT | 0.59
16 | CGACATGTCCCGCTTCTTTCATTAATCAGTTAGCAACTGTGTTGCTATATACATTTACCTTTTAAGAGGAGGAAT | 0.251
17 | CGACATGTCCCGCTTCTTTCATTAATCAGTTAGCAACTGTTATGCTATATACATTTACCTTTTAAGAGGAGGAAT | 0.578
18 | CGACATGTCCCGCTTCTTTCATTAATCAGTTAGCAACTGTTGTGCTATATACATTTACCTTTTAAGAGGAGGAAT | 0.354
19 | CGACATGTCCCGCTTCTTTCATTAATCAGTTAGCAACTGTTTAGCTATATACATTTACCTTTTAAGAGGAGGAAT | 0.775
20 | CGACATGTCCCGCTTCTTTCATTAATCAGTTAGCAACTGTTTTACTATATACATTTACCTTTTAAGAGGAGGAAT | 0.611
21 | CGACATGTCCCGCTTCTTTCATTAATCAGTTAGCAACTGTTTTCCTATATACATTTACCTTTTAAGAGGAGGAAT | 0.433
22 | CGACATGTCCCGCTTCTTTCATTAATCAGTTAGCAACTGTTTTGATATATACATTTACCTTTTAAGAGGAGGAAT | 0.648
23 | CGACATGTCCCGCTTCTTTCATTAATCAGTTAGCAACTGTTTTGCAATATACATTTACCTTTTAAGAGGAGGAAT | 0.332
24 | CGACATGTCCCGCTTCTTTCATTAATCAGTTAGCAACTGTTTTGCTATACACATTTACCTTTTAAGAGGAGGAAT | 0.225
25 | CGACATGTCCCGCTTCTTTCATTAATCAGTTAGCAACTGTTTTGCTATATAAATTTACCTTTTAAGAGGAGGAAT | 0.682
26 | CGACATGTCCCGCTTCTTTCATTAATCAGTTAGCAACTGTTTTGCTATATACATATACCTTTTAAGAGGAGGAAT | 1.04
27 | CGACATGTCCCGCTTCTTTCATTAATCAGTTAGCAACTGTTTTGCTATATACATTAACCTTTTAAGAGGAGGAAT | 0.984
28 | CGACATGTCCCGCTTCTTTCATTAATCAGTTAGCAACTGTTTTGCTATATACATTTAACTTTTAAGAGGAGGAAT | 0.983
29 | CGACATGTCCCGCTTCTTTCATTAATCAGTTAGCAACTGTTTTGCTATATACATTTACATTTTAAGAGGAGGAAT | 0.595
30 | CGACATGTCCCGCTTCTTTCATTAATCAGTTAGCAACTGTTTTGCTATATACATTTACCATTAAGAGGAGGAATT | 1.4
